In the RNAGym collection of RNA variant scans (doi:10.7554/elife.80360):

B1: Hammerhead Ribozyme (parent)
chain: ACCGGAUGUGCUUUCCGGUCUGAUGAGUCCGUGAGGACGAAACAG

Variants of: B1
Assay: self-cleavage, relative activity (ratio to wild type); higher = more cleavage; co-transcriptional

Question: For ACCGGAUGUGUUUUCCGGUCUGAUGAGUCCGUGAGGGCGAAACAG [C11U A37G], which self-cleavage is on record?
Answer: Its self-cleavage is 1.12.

Question: With ACCGGAUGUGUUUUCCGGUCUGAUGAGUCCGUGCGGACGAAACAG [C11U A34C] as the variant, how does the self-cleavage read?
Answer: Its self-cleavage is 0.584.

Question: With ACCGGAUGUGUUUUCCGGUCUGAUGAGUCCGUGGGGACGAAACAG [C11U A34G] as the variant, how does the self-cleavage read?
Answer: Its self-cleavage is 0.83.

Question: With ACCGGAUGUGUUUUCCGGUCUGAUGAGUCCGUGUGGACGAAACAG [C11U A34U] as the variant, how does the self-cleavage read?
Answer: Its self-cleavage is 0.724.

Question: With ACCGGAUGUGGUUUCCGGUCUGAUGAGUCCGGGAGGACGAAACAG [C11G U32G] as the variant, how does the self-cleavage read?
Answer: Its self-cleavage is 1.19.

Question: For ACCGGAUGUGGUUUCCGGUCUGAUGAGUCCGAGAGGACGAAACAG [C11G U32A], which self-cleavage is on record?
Answer: The self-cleavage was 1.1.

Question: With ACCGGAUGUGGUUUCCGGUCUGAUGAGUCCGCGAGGACGAAACAG [C11G U32C] as the variant, how does the self-cleavage read?
Answer: Its self-cleavage is 1.12.

Question: For ACCGGAUGUGGGUUCCGGUCUGAUGAGUCCGUGAGGACGAAACAG [C11G U12G], which self-cleavage is on record?
Answer: Its self-cleavage is 1.17.

Question: With ACCGGAUGUGGCUUCCGGUCUGAUGAGUCCGUGAGGACGAAACAG [C11G U12C] as the variant, how does the self-cleavage read?
Answer: The self-cleavage was 1.07.

Question: For ACCGGAUGUGGAUUCCGGUCUGAUGAGUCCGUGAGGACGAAACAG [C11G U12A], which self-cleavage is on record?
Answer: The self-cleavage was 1.1.

Question: For ACCGGAUGUGGUUUCCGGACUGAUGAGUCCGUGAGGACGAAACAG [C11G U19A], which self-cleavage is on record?
Answer: Its self-cleavage is 0.296.

Question: With ACCGGAUGUGGUUUCCGGCCUGAUGAGUCCGUGAGGACGAAACAG [C11G U19C] as the variant, how does the self-cleavage read?
Answer: Its self-cleavage is 0.532.

Question: With ACCGGAUGUGGUUUCCGGGCUGAUGAGUCCGUGAGGACGAAACAG [C11G U19G] as the variant, how does the self-cleavage read?
Answer: The self-cleavage was 0.42.

Question: For ACCGGAUGUGGUUUCCGGUCUGAUGAGGCCGUGAGGACGAAACAG [C11G U28G], which self-cleavage is on record?
Answer: Its self-cleavage is 0.849.

Question: With ACCGGAUGUGGUUUCCGGUCUGAUGAGCCCGUGAGGACGAAACAG [C11G U28C] as the variant, how does the self-cleavage read?
Answer: Its self-cleavage is 1.13.

Question: Which self-cleavage does the source give for ACCGGAUGUGGUUUCCGGUCUGAUGAGACCGUGAGGACGAAACAG [C11G U28A] here?
Answer: The self-cleavage was 0.809.

Question: Which self-cleavage does the source give for ACCGGAUGUGUUUUCGGGUCUGAUGAGUCCGUGAGGACGAAACAG [C11U C16G] here?
Answer: The self-cleavage was 0.684.

Question: Which self-cleavage does the source give for ACCGGAUGUGUUUUCUGGUCUGAUGAGUCCGUGAGGACGAAACAG [C11U C16U] here?
Answer: The self-cleavage was 0.817.

Question: Which self-cleavage does the source give for ACCGGAUGUGUUUUCAGGUCUGAUGAGUCCGUGAGGACGAAACAG [C11U C16A] here?
Answer: Its self-cleavage is 0.886.

Question: With ACCGGAUGUGGUUUCCGGUCAGAUGAGUCCGUGAGGACGAAACAG [C11G U21A] as the variant, how does the self-cleavage read?
Answer: Its self-cleavage is 0.735.

Question: Which self-cleavage does the source give for ACCGGAUGUGGUUUCCGGUCCGAUGAGUCCGUGAGGACGAAACAG [C11G U21C] here?
Answer: Its self-cleavage is 0.987.

Question: Which self-cleavage does the source give for ACCGGAUGUGGUUUCCGGUCGGAUGAGUCCGUGAGGACGAAACAG [C11G U21G] here?
Answer: Its self-cleavage is 0.847.

Question: Which self-cleavage does the source give for ACCGGAUGUGGUUUCCGCUCUGAUGAGUCCGUGAGGACGAAACAG [C11G G18C] here?
Answer: The self-cleavage was 0.426.

Question: Which self-cleavage does the source give for ACCGGAUGUGGUUUCCGUUCUGAUGAGUCCGUGAGGACGAAACAG [C11G G18U] here?
Answer: The self-cleavage was 0.725.

Question: Which self-cleavage does the source give for ACCGGAUGUGGUUUCCGAUCUGAUGAGUCCGUGAGGACGAAACAG [C11G G18A] here?
Answer: The self-cleavage was 0.553.

Question: Which self-cleavage does the source give for ACCGGAUGUGUUUUCCGGUCUGAUGAGUCCGUGAGGACGAAAAAG [C11U C43A] here?
Answer: The self-cleavage was 0.36.

Question: For ACCGGAUGUGUUUUCCGGUCUGAUGAGUCCGUGAGGACGAAUCAG [C11U A42U], which self-cleavage is on record?
Answer: The self-cleavage was 0.377.

Question: Which self-cleavage does the source give for ACCGGAUGUGUUUUCCGGUCUGAUGAGUCCGUGAGGACGAACCAG [C11U A42C] here?
Answer: The self-cleavage was 0.388.

Question: With ACCGGAUGUGUUUUCCGGUCUGAUGAGUCCGUGAGGACGAAGCAG [C11U A42G] as the variant, how does the self-cleavage read?
Answer: Its self-cleavage is 0.304.

Question: With ACCGGAUGUGGUUUCCUGUCUGAUGAGUCCGUGAGGACGAAACAG [C11G G17U] as the variant, how does the self-cleavage read?
Answer: The self-cleavage was 0.589.

Question: For ACCGGAUGUGGUUUCCCGUCUGAUGAGUCCGUGAGGACGAAACAG [C11G G17C], which self-cleavage is on record?
Answer: The self-cleavage was 0.273.

Question: For ACCGGAUGUGGUUUCCAGUCUGAUGAGUCCGUGAGGACGAAACAG [C11G G17A], which self-cleavage is on record?
Answer: Its self-cleavage is 0.511.

Question: With ACCGGAUGUGGUUUCCGGUCUGAUGAGUCCGUGAGGAUGAAACAG [C11G C38U] as the variant, how does the self-cleavage read?
Answer: Its self-cleavage is 1.09.

Question: Which self-cleavage does the source give for ACCGGAUGUGGUUUCCGGUCUGAUGAGUCCGUGAGGAAGAAACAG [C11G C38A] here?
Answer: The self-cleavage was 0.718.

Question: For ACCGGAUGUGGUUUCCGGUCUGAUGAGUCCGUGAGGAGGAAACAG [C11G C38G], which self-cleavage is on record?
Answer: The self-cleavage was 0.692.

Question: With ACCGGAUGUGGUUUCCGGUCUGAUGAGUACGUGAGGACGAAACAG [C11G C29A] as the variant, how does the self-cleavage read?
Answer: The self-cleavage was 0.786.

Question: With ACCGGAUGUGGUUUCCGGUCUGAUGAGUUCGUGAGGACGAAACAG [C11G C29U] as the variant, how does the self-cleavage read?
Answer: The self-cleavage was 1.28.

Question: With ACCGGAUGUGGUUUCCGGUCUGAUGAGUGCGUGAGGACGAAACAG [C11G C29G] as the variant, how does the self-cleavage read?
Answer: Its self-cleavage is 0.82.

Question: Which self-cleavage does the source give for ACCGGAUGUGGUUUCCGGUCUGAUAAGUCCGUGAGGACGAAACAG [C11G G25A] here?
Answer: Its self-cleavage is 0.288.

Question: With ACCGGAUGUGGUUUCCGGUCUGAUCAGUCCGUGAGGACGAAACAG [C11G G25C] as the variant, how does the self-cleavage read?
Answer: The self-cleavage was 0.326.

Question: For ACCGGAUGUGGUUUCCGGUCUGAUUAGUCCGUGAGGACGAAACAG [C11G G25U], which self-cleavage is on record?
Answer: Its self-cleavage is 0.282.

Question: Which self-cleavage does the source give for ACCGGAUGUGGUUUCCGGUCUGAUGAGUCUGUGAGGACGAAACAG [C11G C30U] here?
Answer: Its self-cleavage is 1.28.

Question: Which self-cleavage does the source give for ACCGGAUGUGGUUUCCGGUCUGAUGAGUCAGUGAGGACGAAACAG [C11G C30A] here?
Answer: Its self-cleavage is 1.26.

Question: For ACCGGAUGUGGUUUCCGGUCUGAUGAGUCGGUGAGGACGAAACAG [C11G C30G], which self-cleavage is on record?
Answer: Its self-cleavage is 1.22.

Question: For ACCGGAUGUGUUUUCCGGUCUGAUGAGUCCGUGAGGACGAAACAG [C11U], which self-cleavage is on record?
Answer: The self-cleavage was 1.02.

Question: Which self-cleavage does the source give for ACCGGAUGUGGUUUCCGGUCUGAUGAGUCCUUGAGGACGAAACAG [C11G G31U] here?
Answer: The self-cleavage was 1.34.

Question: For ACCGGAUGUGGUUUCCGGUCUGAUGAGUCCAUGAGGACGAAACAG [C11G G31A], which self-cleavage is on record?
Answer: Its self-cleavage is 1.03.

Question: With ACCGGAUGUGGUUUCCGGUCUGAUGAGUCCCUGAGGACGAAACAG [C11G G31C] as the variant, how does the self-cleavage read?
Answer: Its self-cleavage is 0.83.

Question: Which self-cleavage does the source give for ACCGGAUGUGGUGUCCGGUCUGAUGAGUCCGUGAGGACGAAACAG [C11G U13G] here?
Answer: Its self-cleavage is 1.11.

Question: For ACCGGAUGUGGUCUCCGGUCUGAUGAGUCCGUGAGGACGAAACAG [C11G U13C], which self-cleavage is on record?
Answer: The self-cleavage was 1.32.

Question: With ACCGGAUGUGGUAUCCGGUCUGAUGAGUCCGUGAGGACGAAACAG [C11G U13A] as the variant, how does the self-cleavage read?
Answer: Its self-cleavage is 1.21.

Question: Which self-cleavage does the source give for ACCGGAUGUGGUUUCCGGUCUGAUGAAUCCGUGAGGACGAAACAG [C11G G27A] here?
Answer: Its self-cleavage is 0.839.

Question: With ACCGGAUGUGGUUUCCGGUCUGAUGAUUCCGUGAGGACGAAACAG [C11G G27U] as the variant, how does the self-cleavage read?
Answer: The self-cleavage was 0.527.

Question: With ACCGGAUGUGGUUUCCGGUCUGAUGACUCCGUGAGGACGAAACAG [C11G G27C] as the variant, how does the self-cleavage read?
Answer: Its self-cleavage is 0.938.

Question: Which self-cleavage does the source give for ACCGGAUGUGUUUUCCGGUCUGAUGAGUCCGUGAGGACGAAACGG [C11U A44G] here?
Answer: Its self-cleavage is 1.35.

Question: For ACCGGAUGUGUUUUCCGGUCUGAUGAGUCCGUGAGGACGAAACUG [C11U A44U], which self-cleavage is on record?
Answer: The self-cleavage was 0.497.

Question: Which self-cleavage does the source give for ACCGGAUGUGUUUUCCGGUCUGAUGAGUCCGUGAGGACGAAACCG [C11U A44C] here?
Answer: The self-cleavage was 0.474.
